Laboratory results: patent US20110104145A1, “METHOD FOR THE TREATMENT OR PROPHYLAXIS OF CHRONIC INFLAMMATORY DISEASES” (priority 2008, published 2011)

Target: CD89 (Fc receptor for IgA) on polymorphonuclear cells (human) (UniProt P24071)
Test: cell-based or functional assay

Sequence of CD89 (Fc receptor for IgA) on polymorphonuclear cells (human) (P24071 22-287): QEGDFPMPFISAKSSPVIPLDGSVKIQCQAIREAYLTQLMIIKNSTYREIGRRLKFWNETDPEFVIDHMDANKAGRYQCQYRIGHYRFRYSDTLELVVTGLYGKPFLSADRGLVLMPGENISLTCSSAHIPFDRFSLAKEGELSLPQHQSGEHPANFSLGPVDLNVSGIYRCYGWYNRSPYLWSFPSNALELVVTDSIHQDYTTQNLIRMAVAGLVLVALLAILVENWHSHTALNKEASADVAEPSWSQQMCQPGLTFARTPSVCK

Row | percentage blocking (polymorphonuclear cells bound to IgA-coated beads, 2-D migration assay) | Substance
1 | 75 to 90% | anti-CD89 monoclonal antibody MIP8a
2 | 30% | anti-CD89 monoclonal antibody MY43
